Experimental data reported in patent US20130225434A1 (BOARD OF TRUSTEES OF THE UNIVERSITY OF ILLINOIS, published 2013).
Square brackets hold non-standard residues; d marks the D form. * marks the point of attachment. Biotin = O=C1N[C@H]2[C@H](CS[C@H]2CCCCC(=O)*)N1; pT = C[C@@H](OP(=O)(O)O)[C@H](N)C(=O)O

T1: Rad9-pT peptide with SGS linker (SGS-SLEVpTEADATFYAKK) (yeast, SMILES …)
T1 construct: also called cognate pT peptide; Rad-pT
T1 peptide: Biotin-SGSSLEV[pT]EADATFYAKK-NH2

B1: C (designed binder)
FHA1 domain displayed on M13 protein III: MENITQPTQQSTQATQRFLIEKFSQEQIGENIVCRVISTTGQIPIRDLSADISQVLKEKRSIKKVWTFGRNPACDYHLGNISRLSNKHFQILLGEDGNLLLNDISTNGTWLNGQKVEKNSNQLLSQGDEITVGVGVESDILSLVIFINDKFKQSLEQNKVDRIRSNLKNT
notes: also called S34C
B2: N (designed binder)
FHA1 domain displayed on M13 protein III: MENITQPTQQSTQATQRFLIEKFSQEQIGENIVNRVISTTGQIPIRDLSADISQVLKEKRSIKKVWTFGRNPACDYHLGNISRLSNKHFQILLGEDGNLLLNDISTNGTWLNGQKVEKNSNQLLSQGDEITVGVGVESDILSLVIFINDKFKQSLEQNKVDRIRSNLKNT
notes: also called S34N
B3: K (designed binder)
FHA1 domain displayed on M13 protein III: MENITQPTQQSTQATQRFLIEKFSQEQIGENIVKRVISTTGQIPIRDLSADISQVLKEKRSIKKVWTFGRNPACDYHLGNISRLSNKHFQILLGEDGNLLLNDISTNGTWLNGQKVEKNSNQLLSQGDEITVGVGVESDILSLVIFINDKFKQSLEQNKVDRIRSNLKNT
notes: also called S34K
B4: D (designed binder)
FHA1 domain displayed on M13 protein III: MENITQPTQQSTQATQRFLIEKFSQEQIGENIVDRVISTTGQIPIRDLSADISQVLKEKRSIKKVWTFGRNPACDYHLGNISRLSNKHFQILLGEDGNLLLNDISTNGTWLNGQKVEKNSNQLLSQGDEITVGVGVESDILSLVIFINDKFKQSLEQNKVDRIRSNLKNT
notes: also called S34D
B5: Q (designed binder)
FHA1 domain displayed on M13 protein III: MENITQPTQQSTQATQRFLIEKFSQEQIGENIVQRVISTTGQIPIRDLSADISQVLKEKRSIKKVWTFGRNPACDYHLGNISRLSNKHFQILLGEDGNLLLNDISTNGTWLNGQKVEKNSNQLLSQGDEITVGVGVESDILSLVIFINDKFKQSLEQNKVDRIRSNLKNT
notes: also called S34Q
B6: R (designed binder)
FHA1 domain displayed on M13 protein III: MENITQPTQQSTQATQRFLIEKFSQEQIGENIVRRVISTTGQIPIRDLSADISQVLKEKRSIKKVWTFGRNPACDYHLGNISRLSNKHFQILLGEDGNLLLNDISTNGTWLNGQKVEKNSNQLLSQGDEITVGVGVESDILSLVIFINDKFKQSLEQNKVDRIRSNLKNT
notes: also called S34R
B7: P (designed binder)
FHA1 domain displayed on M13 protein III: MENITQPTQQSTQATQRFLIEKFSQEQIGENIVPRVISTTGQIPIRDLSADISQVLKEKRSIKKVWTFGRNPACDYHLGNISRLSNKHFQILLGEDGNLLLNDISTNGTWLNGQKVEKNSNQLLSQGDEITVGVGVESDILSLVIFINDKFKQSLEQNKVDRIRSNLKNT
notes: also called S34P
B8: G (designed binder)
FHA1 domain displayed on M13 protein III: MENITQPTQQSTQATQRFLIEKFSQEQIGENIVGRVISTTGQIPIRDLSADISQVLKEKRSIKKVWTFGRNPACDYHLGNISRLSNKHFQILLGEDGNLLLNDISTNGTWLNGQKVEKNSNQLLSQGDEITVGVGVESDILSLVIFINDKFKQSLEQNKVDRIRSNLKNT
notes: also called S34G
B9: E (designed binder)
FHA1 domain displayed on M13 protein III: MENITQPTQQSTQATQRFLIEKFSQEQIGENIVERVISTTGQIPIRDLSADISQVLKEKRSIKKVWTFGRNPACDYHLGNISRLSNKHFQILLGEDGNLLLNDISTNGTWLNGQKVEKNSNQLLSQGDEITVGVGVESDILSLVIFINDKFKQSLEQNKVDRIRSNLKNT
notes: also called S34E
B10: H (designed binder)
FHA1 domain displayed on M13 protein III: MENITQPTQQSTQATQRFLIEKFSQEQIGENIVHRVISTTGQIPIRDLSADISQVLKEKRSIKKVWTFGRNPACDYHLGNISRLSNKHFQILLGEDGNLLLNDISTNGTWLNGQKVEKNSNQLLSQGDEITVGVGVESDILSLVIFINDKFKQSLEQNKVDRIRSNLKNT
notes: also called S34H

Target: T1, Rad9-pT peptide with SGS linker …
Assay: phage ELISA on immobilized Rad9-pT, phage normalised to the Flag epitope; anti-M13-HRP, A405
Text: Through Kunkel mutagenesis (Yaffe (2002) Nat Rev Mol Cell Bol 3, 177-86), the amino acid residue at position 34 in the β1 strand of the D2 FHA 1 domain was replaced (from the naturally-occurring V) one at a time with each of the other naturally occurring amino acids and binding to the immobilized Rad9-pT peptide was monitored by phage ELISA. Phage binding was detected using anti-M13 antibody conjugated to Horse Radish Peroxidase (HRP). […] All the variants display an N-terminal Flag peptide and the amount of phage particles used for each variant in this experiment has been normalized for this epitope.
To amplify the phage particles displaying the recombinant FHA1 variants, TG1 bacterial cells (5 mL; Stratagene) harboring the phagemid DNA were infected at mid-log (OD₆₀₀ₙₘ=0.5-0.6) with M13K07 helper phage (New England Biolabs) at a multiplicity of infection (MOI) of 20 for 1 h at 37° C. at 150 rpm. Infected cells were centrifuged, and the pellet was resuspended in fresh Luria Bertani medium (LB: 10 g Tryptone, 5 g Yeast extract, and 10 g NaCl per liter) supplemented with 50 μg/mL carbenicillin and 50 μg/ml kanamycin, and phage were amplified overnight at 30° C. at 250 rpm. All of the phage ELISA steps were performed at room temperature. Biotinylated peptides (100 μL, 5 μg/mL) were immobilized on Nunc MaxiSorp flat-bottom 96 well plates (Thermo Fisher Scientific) via NeutrAvidin™ Biotin binding protein (100 μL, 10 μg/mL; Thermo Fisher Scientific) and blocked with 2% skim milk in 1×PBS (200 μL per well).

Binder	binding result
B1	no binding
B2	no binding
B3	no binding
B4	no binding
B5	no binding
B6	no binding
B7	no binding
B8	no binding
B9	no binding
B10	no binding
